Publication PMC8531335, “Point mutations in Candida glabrata 3-hydroxy-3-methylglutaryl-coenzyme A reductase (CgHMGR) decrease enzymatic activity and substrate/inhibitor affinity” (Scientific Reports, 2021)

Each substance was assayed on CC(C)(COP(=O)(O)OP(=O)(O)OC[C@H]1O[C@@H](n2cnc3c(N)ncnc32)[C@H](O)[C@@H]1OP(=O)(O)O)[C@@H](O)C(=O)NCCC(=O)NCCSC(=O)C[C@@](C)(O)CC(=O)O (assay: purified protein). Settings: NADPH co-substrate, Tris-HCl; HMG-CoA 1-64 µM; MBP fusion.
Assay type: biochemical, Nakaseomyces glabratus

| Substance | Km [µM] |
| --- | --- |
| CgHMGR (Rec-MBP-CgHMGR, catalytic domain of Candida glabrata HMGR) (Nakaseomyces glabratus CBS 138; D805A) | 11.84 |
| CgHMGR (Rec-MBP-CgHMGR, catalytic domain of Candida glabrata HMGR) (Nakaseomyces glabratus CBS 138; E711Q) | 18 |
| CgHMGR (Rec-MBP-CgHMGR, catalytic domain of Candida glabrata HMGR) (Nakaseomyces glabratus CBS 138; E680Q) | 8.31 |
